The source of these data is PMC10264073, “Biological condensates form percolated networks with molecular motion properties distinctly different from dilute solutions” (eLife, 2023).

One data set concerns the target MBP-His6-GCN4-Dimer. Nature of the data set: SEC-MALS; FPLC coupled with static light scattering; Superose 12 10/300 GL; 50 mM Tris pH 8.2, 100 mM NaCl, 1 mM EDTA, 2 mM DTT; loading concentration not shown. (In gel filtration, larger molecules generally elute earlier.)
Data set [1] deals with the molecule itself. Nature of the data set: SEC-MALS; FPLC coupled with static light scattering; Superose 12 10/300 GL; 50 mM Tris pH 8.2, 100 mM NaCl, 1 mM EDTA, 2 mM DTT; loading concentrations 30 μM and 150 μM.

Molecule MBP-His6-GCN4-Dimer showed a stoichiometry N in the data set with MBP-His6-GCN4-Dimer of 2.

B1: PrLD-SAMWT fusion protein (FUS PrLD fused to the Shank3 SAM domain; MBP-PrLD-SAMWT-GB1) (other, UniProt P56959 1-212, looked up)
chain: CMASNDYTQQATQSYGAYPTQPGQGYSQQSSQPYGQQSYSGYGQSADTSGYGQSSYGSSYGQTQNTGYGTQSAPQGYGSTGGYGSSQSSQSSYGQQSSYPGYGQQPAPSSTSGSYGGSSQSSSYGQPQSGGYGQQSGYGGQQQSYGQQQSSYNPPQGYGQQNQYNSSSGGGGGGGGGNYGQDQSSMSGGGGGGGYGNQDQSGGGGGGYGGGQQGPRRPFQQKPLQLWSKFDVGDWLESIHLGEHRDRFEDHEIEGAHLPALTKEDFVELGVTRVGHRMNIERALRQLDGS
notes: FUS prion-like domain (PrLD), UniProt P56959, segment 1-212; SAM domain of Shank3 (aa 1654-1730), UniProt Q4ACU6, fused to the C-terminal end of PrLD; The light-scattering legend calls it only 'PrLD-SAMWT fusion protein (theoretical MW 80.7 kDa)'; also called PrLD-SAM chimera; source: E. coli BL21 (DE3), purified (Ni2+-NTA, size-exclusion chromatography); not shown: MBP, N-terminal, kept; GB1, …
For B1, in data set [1], the binding result was “binds”.

For orientation: stoichiometry N means a count of units in the complex or per binding partner.
